Data reported in patent US10087225B2, “Formulation of MK2 inhibitor peptides” (MOERAE MATRIX, INC., priority 2015, dated 2018).

Experiments:
Assay in all cases: Kinase Profiling Assay
Type in all cases: biochemical
Conditions in all cases: for % activity: 100 μM
CK2(h) = CK2(h) (Homo sapiens, UniProt P68400)
MLK1(h) = MLK1(h) (Homo sapiens, UniProt P80192)
PAK4(h) = PAK4(h) (Homo sapiens, UniProt O96013)
Ax1(h) = Ax1(h) (Homo sapiens, UniProt P30530)
FGFR1(h) = FGFR1(h) (Homo sapiens, UniProt P11362)
PASK(h) = PASK(h) (Homo sapiens, UniProt Q96RG2)
CLK3(h) = CLK3(h) (Homo sapiens, UniProt P49761)
ASK1(h) = target: T1, ASK1(h) (Homo sapiens, UniProt Q99683)
T1 sequence (Q99683 1-1374): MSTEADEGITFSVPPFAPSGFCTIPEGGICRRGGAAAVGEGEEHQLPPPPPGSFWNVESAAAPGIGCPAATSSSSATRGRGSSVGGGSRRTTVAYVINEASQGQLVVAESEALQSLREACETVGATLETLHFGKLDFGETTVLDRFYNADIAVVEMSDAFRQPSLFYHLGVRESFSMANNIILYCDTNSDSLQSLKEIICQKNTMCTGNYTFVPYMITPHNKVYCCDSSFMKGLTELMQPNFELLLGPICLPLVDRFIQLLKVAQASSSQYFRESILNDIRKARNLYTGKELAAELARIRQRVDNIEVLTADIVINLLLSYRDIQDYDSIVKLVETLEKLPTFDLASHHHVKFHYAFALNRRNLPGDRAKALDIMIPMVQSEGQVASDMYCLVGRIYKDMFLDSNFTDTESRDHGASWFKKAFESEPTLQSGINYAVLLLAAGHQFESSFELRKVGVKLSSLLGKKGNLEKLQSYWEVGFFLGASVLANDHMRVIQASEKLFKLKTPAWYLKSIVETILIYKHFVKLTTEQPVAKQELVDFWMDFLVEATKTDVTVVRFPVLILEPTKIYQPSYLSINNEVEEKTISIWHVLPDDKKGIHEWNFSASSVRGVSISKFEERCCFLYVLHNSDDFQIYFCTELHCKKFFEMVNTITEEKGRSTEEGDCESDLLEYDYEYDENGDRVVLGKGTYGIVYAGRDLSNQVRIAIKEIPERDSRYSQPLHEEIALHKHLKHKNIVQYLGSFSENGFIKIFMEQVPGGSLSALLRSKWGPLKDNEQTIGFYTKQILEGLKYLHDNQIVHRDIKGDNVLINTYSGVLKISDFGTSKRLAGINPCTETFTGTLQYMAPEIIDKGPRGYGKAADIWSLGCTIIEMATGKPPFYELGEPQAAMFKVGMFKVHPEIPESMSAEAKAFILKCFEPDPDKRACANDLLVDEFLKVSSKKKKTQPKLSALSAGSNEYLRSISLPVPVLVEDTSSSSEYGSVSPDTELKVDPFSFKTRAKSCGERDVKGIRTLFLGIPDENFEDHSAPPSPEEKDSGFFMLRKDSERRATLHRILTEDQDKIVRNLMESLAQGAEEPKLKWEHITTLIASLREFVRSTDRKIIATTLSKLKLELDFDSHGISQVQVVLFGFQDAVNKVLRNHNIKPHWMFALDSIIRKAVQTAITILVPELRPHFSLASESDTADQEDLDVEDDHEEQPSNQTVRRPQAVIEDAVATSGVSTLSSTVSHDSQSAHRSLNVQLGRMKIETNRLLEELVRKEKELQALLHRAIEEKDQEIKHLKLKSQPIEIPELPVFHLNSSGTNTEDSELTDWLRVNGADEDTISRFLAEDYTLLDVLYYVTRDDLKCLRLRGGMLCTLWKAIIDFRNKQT

CHK2(R145W)(h) = CHK2(R145W)(h) (Homo sapiens, UniProt O96017, R145W)
Met(Y1248D)(h) = Met(Y1248D)(h) (Homo sapiens, UniProt P08581, Y1230D)
PKCμ(h) = target: T2, PKCμ(h) (Homo sapiens, UniProt Q15139)
T2 sequence (Q15139 1-912): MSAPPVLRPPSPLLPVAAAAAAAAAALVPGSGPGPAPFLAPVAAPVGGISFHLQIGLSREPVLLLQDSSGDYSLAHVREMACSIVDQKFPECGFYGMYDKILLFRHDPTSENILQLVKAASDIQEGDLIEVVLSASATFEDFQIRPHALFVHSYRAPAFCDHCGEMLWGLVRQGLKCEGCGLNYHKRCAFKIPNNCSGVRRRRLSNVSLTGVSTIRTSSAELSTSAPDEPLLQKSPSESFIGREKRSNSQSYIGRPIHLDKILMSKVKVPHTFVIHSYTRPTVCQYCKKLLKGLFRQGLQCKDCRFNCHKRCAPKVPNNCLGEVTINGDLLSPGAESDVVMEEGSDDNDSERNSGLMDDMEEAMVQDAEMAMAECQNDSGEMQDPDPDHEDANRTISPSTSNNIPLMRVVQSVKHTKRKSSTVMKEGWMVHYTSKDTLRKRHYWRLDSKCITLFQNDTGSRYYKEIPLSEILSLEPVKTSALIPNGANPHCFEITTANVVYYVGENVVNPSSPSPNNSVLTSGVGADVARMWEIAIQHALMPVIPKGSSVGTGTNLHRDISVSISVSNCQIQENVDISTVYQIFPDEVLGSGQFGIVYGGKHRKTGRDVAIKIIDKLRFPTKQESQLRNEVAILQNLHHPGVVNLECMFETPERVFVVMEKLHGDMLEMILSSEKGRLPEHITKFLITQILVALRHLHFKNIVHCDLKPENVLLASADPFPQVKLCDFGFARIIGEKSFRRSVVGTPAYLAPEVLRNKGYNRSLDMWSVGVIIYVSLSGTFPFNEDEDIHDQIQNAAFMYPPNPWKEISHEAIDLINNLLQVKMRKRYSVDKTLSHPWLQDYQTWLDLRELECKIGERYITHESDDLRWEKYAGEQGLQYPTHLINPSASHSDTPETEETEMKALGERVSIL

Chain of MLK1(h) (P80192 whole entry): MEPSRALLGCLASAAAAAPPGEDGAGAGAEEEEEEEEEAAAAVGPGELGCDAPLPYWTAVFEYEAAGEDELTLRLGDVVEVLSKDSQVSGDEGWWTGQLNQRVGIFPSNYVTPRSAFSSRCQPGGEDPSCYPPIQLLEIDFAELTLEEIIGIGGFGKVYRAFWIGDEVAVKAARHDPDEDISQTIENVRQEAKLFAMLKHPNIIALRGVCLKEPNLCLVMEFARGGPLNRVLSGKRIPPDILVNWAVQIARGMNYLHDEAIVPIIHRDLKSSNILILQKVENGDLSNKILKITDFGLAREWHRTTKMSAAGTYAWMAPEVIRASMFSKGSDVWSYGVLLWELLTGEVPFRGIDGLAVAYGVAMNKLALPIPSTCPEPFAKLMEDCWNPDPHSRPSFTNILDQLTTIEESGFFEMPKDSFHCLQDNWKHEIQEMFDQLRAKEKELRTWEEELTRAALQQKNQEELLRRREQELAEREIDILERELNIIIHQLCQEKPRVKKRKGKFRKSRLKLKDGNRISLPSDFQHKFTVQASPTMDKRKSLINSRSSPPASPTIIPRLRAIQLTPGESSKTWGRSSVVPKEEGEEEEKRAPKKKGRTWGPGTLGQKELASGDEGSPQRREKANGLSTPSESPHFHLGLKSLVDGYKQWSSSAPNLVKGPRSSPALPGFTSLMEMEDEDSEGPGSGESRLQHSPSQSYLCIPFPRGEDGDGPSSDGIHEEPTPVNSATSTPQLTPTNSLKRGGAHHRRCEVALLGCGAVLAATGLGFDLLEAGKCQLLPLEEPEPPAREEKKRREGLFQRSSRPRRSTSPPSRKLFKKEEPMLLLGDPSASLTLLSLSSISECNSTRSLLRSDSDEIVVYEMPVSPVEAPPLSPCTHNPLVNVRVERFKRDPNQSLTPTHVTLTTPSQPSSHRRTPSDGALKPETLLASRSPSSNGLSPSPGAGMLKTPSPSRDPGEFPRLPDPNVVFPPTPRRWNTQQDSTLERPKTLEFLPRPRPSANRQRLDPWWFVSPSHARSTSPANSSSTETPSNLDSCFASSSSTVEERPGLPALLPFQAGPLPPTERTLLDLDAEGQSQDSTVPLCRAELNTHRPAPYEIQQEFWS
Chain of PAK4(h) (O96013 whole entry): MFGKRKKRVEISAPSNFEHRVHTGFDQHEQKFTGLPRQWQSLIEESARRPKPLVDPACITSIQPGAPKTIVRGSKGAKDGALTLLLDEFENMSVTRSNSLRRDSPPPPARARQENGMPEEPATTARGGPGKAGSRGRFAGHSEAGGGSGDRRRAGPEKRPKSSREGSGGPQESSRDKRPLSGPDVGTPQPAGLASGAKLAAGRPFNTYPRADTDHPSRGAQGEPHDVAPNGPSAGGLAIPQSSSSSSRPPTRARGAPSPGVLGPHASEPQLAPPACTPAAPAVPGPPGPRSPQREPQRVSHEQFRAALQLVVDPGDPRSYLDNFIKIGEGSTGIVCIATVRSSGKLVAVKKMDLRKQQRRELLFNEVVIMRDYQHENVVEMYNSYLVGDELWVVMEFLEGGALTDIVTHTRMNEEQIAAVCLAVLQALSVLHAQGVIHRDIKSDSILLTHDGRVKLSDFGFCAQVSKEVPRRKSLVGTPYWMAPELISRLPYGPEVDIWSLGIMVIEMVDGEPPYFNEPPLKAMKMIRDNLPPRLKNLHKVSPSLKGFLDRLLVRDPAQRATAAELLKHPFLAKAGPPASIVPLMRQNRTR
Chain of CHK2(R145W)(h) (O96017 whole entry R145W): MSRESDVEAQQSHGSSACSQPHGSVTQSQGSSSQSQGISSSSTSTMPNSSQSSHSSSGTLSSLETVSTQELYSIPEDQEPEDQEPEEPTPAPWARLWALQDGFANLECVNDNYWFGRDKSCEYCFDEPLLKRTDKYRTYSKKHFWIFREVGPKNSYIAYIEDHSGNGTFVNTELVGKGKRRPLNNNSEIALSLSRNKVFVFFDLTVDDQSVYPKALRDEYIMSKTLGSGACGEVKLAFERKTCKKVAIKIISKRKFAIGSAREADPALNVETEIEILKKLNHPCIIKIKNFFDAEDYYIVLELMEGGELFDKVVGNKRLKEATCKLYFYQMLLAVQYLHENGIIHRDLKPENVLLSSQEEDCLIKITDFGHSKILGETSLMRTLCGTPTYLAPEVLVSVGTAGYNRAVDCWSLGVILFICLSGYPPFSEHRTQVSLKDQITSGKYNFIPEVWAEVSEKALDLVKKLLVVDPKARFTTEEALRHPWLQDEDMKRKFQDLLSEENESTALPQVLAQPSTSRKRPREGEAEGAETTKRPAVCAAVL
Chain of FGFR1(h) (P11362 22-822): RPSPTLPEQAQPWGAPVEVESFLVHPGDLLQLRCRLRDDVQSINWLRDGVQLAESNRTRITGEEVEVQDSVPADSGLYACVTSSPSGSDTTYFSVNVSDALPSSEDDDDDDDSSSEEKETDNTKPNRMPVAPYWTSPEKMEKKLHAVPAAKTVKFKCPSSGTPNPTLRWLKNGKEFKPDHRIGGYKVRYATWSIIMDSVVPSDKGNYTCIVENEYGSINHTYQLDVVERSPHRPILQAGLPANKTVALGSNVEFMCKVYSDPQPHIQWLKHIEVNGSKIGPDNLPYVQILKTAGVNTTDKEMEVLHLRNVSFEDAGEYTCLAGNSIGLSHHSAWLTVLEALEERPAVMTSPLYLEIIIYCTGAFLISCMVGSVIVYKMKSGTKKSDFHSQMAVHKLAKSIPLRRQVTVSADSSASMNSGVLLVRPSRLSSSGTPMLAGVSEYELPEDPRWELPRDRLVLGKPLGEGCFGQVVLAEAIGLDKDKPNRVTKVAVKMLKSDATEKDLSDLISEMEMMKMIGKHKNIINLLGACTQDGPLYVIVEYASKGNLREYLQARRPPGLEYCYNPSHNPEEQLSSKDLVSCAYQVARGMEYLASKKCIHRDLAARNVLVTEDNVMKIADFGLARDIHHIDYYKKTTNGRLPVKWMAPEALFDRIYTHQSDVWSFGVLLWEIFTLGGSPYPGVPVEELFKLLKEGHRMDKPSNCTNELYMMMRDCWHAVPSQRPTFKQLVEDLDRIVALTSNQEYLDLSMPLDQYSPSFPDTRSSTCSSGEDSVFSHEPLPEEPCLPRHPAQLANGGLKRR
Chain of PASK(h) (Q96RG2 whole entry): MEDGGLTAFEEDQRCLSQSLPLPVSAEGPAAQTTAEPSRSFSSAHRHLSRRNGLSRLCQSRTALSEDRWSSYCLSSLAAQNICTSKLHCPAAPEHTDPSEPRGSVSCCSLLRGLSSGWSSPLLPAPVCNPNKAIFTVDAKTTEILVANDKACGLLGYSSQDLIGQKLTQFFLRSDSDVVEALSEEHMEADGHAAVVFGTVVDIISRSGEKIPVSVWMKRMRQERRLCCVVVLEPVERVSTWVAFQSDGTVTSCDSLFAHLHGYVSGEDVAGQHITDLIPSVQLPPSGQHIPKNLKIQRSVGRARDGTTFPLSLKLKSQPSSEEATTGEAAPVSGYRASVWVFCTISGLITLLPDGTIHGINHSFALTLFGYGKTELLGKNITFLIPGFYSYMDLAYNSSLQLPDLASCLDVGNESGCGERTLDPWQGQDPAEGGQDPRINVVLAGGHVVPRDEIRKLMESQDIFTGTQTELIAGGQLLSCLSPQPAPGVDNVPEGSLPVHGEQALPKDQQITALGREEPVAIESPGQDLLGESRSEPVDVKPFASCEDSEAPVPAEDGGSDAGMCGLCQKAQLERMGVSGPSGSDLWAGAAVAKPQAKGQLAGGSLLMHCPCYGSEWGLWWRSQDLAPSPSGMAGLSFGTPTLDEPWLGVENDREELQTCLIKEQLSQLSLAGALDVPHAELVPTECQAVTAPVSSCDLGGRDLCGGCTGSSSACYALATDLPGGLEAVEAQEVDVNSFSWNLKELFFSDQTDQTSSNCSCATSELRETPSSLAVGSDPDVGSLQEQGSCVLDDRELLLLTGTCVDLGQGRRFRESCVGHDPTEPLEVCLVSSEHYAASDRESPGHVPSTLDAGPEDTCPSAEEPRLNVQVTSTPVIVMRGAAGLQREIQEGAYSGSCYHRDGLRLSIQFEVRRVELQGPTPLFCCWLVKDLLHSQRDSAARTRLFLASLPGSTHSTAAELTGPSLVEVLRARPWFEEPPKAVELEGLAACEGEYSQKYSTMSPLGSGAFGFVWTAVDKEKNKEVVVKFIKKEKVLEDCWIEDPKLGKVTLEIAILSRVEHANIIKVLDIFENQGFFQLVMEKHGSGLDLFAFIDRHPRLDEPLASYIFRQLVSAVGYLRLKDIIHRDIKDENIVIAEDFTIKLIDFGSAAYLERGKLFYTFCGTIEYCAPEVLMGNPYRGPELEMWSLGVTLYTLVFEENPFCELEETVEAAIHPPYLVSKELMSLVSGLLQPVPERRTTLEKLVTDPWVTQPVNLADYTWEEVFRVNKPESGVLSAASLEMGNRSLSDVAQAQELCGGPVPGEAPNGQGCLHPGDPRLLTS
Chain of CK2(h) (P68400 whole entry): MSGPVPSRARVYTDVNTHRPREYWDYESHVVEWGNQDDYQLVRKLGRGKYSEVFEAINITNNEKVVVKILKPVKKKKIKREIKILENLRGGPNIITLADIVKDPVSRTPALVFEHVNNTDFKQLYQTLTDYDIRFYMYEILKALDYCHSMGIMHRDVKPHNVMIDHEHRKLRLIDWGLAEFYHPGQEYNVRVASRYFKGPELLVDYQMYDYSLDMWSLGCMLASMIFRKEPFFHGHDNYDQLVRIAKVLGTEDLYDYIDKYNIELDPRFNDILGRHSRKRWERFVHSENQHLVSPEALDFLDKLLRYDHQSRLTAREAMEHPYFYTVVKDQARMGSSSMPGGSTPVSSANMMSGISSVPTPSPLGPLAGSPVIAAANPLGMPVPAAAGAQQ
Chain of CK2(h) (P67870 whole entry partner): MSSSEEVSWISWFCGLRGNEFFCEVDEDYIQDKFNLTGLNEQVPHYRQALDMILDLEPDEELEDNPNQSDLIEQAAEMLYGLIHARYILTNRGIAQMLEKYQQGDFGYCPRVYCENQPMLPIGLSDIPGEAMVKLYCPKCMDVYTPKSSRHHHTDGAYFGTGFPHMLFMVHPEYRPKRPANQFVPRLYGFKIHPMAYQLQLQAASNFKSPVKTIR

Row | Substance | % activity (CK2(h)) | % activity (MLK1(h)) | % activity (PAK4(h)) | % activity (Ax1(h)) | % activity (FGFR1(h)) | % activity (PASK(h)) | % activity (CLK3(h)) | % activity (ASK1(h)) | % activity (CHK2(R145W)(h)) | % activity (Met(Y1248D)(h)) | % activity (PKCμ(h)) | further results
1 | HRRIKAWLKKIKALARQLGVAA (Mammalian) [MMI-0500] | 93% | 43% | 86% | 12% | 18% | 9% | 76% | -4% | 3% | 218% | 10% | –
2 | YARAAARQARAKALNRQLGVA (Mammalian) [MMI-0200] | 83% | 84% | 98% | 99% | 97% | 60% | 76% | 101% | 81% | 118% | 73% | –
3 | H-YARAAARQARAKALARQLGVAA-OH [MMI-0100] | – | – | – | – | – | – | – | – | – | – | – | activity at 100 µM (CK2(h)): 90%; activity at 100 µM (MLK1(h)): 77%; activity at 100 µM (PAK4(h)): 92%; activity at 100 µM (Ax1(h)): 81%; activity at 100 µM (FGFR1(h)): 120%; activity at 100 µM (PASK(h)): 81%; activity at 100 µM (CLK3(h)): 108%; activity at 100 µM (ASK1(h)): 100%; activity at 100 µM (CHK2(R145W)(h)): 97%; activity at 100 µM (Met(Y1248D)(h)): 87%; activity at 100 µM (PKCμ(h)): 79%
